Data reported in US20160068835A1, “FLEXIBLE DISPLAY METHOD” (PEPTIDREAM INC., priority 2013, published 2016).
Where no end group is shown, it is not given here. [ ]: non-standard residue; d: D form. The star is where a group is joined. ClAB‑L‑Phe = N-[3-(2-chloroacetamido)benzoyl]-L-phenylalanine, O=C(CCl)Nc1cccc(C(=O)N[C@@H](Cc2ccccc2)C(=O)*)c1; puromycin = COc1ccc(C[C@H](N*)C(=O)N[C@H]2[C@@H](O)[C@H](n3cnc4c(N(C)C)ncnc43)O[C@@H]2CO)cc1; An21 Pu‑linker = not defined here

Key:
[1] = target: T1, human serum albumin (HSA) (Homo sapiens, UniProt P02768); assay: Bonding assay of chemically synthesized peptides by Bio-Layer Interferometry (BLI method); format: binding; settings: 50 mM Hepes-KOH pH 7.5, 300 mM NaCl, 0.05% Tween20, 0.001% DMSO, 30° C.; peptide 1-16 nM; FIG. 8
Procedure: (§1) Next, these peptides were chemically synthesized by Fmoc solid phase synthesis, and the bond to HSA was assessed using the Bio-Layer Interferometry method (BLI method). A bonding assay was performed under the condition of 50 mM Hepes-KOH pH 7.5, 300 mM NaCl, 0.05% Tween20 and 0.001% DMSO at 30° C. Each step of the assay consists of the bond reaction of peptide to HSA being 500 s, and the dissociation reaction being 500 s. The peptide solution was created by the following dilution series (p1: 16, 12, 8, 2, 1 nM, and p2: 16, 12, 8, 4 nM).

[2] = target: T1, human serum albumin (HSA); assay: Pull-down of peptides displayed as An21-type complexes with HSA-immobilized SA beads, recovered cDNA quantified by real-time PCR; format: binding; settings: An21-type display complexes; HSA-immobilized SA beads vs SA beads free of HSA; FIG. 5e
Procedure: Derivative peptides having reverse and shuffled sequences of the selected peptides (p1 and p2) and the original peptide were prepared as the An21-type complexes. […] Furthermore, since the bonding activity to HSA is lost when the amino acid sequence of the obtained cyclic peptide is reconfigured (reversed or shuffled), it could be seen that the bond of peptide to HSA is sequence-dependent (FIG. 5e).
mRNAs of p1 and p2 were synthesized from the colony PCR product. The reverse or shuffled sequences of the mRNAs of the p1 and p2 peptides were prepared as follows. The DNA template was prepared using T7SD8M2.F44 as the forward primer, and SD8No38revG5S4.R69, SD8No38ranG5S4.R69, SD8No41revG5S4.R75 or SD8No41ranG5S4.R75 as the reverse primer. An elongation PCR and transcription were performed by a method similar to the method used in preparation of T7-mRNA. mRNA was purified by phenol/chloroform extraction and 2-propanole precipitation, and dissolved in ultrapure water.
Translation (2 μL), reverse transcription (4 μL), and the quenching reaction (5.25 μL) were performed by the above method.
2 μL of the obtained solution was mixed with HSA immobilized SA beads (0.3 pmol HSA) or SA-beads. After incubation at room temperature for 10 min., the beads were washed three times with 10 μL of HBST. […] The recovered cDNA was quantified with real-time PCR.

[3] = target: T2, human serum albumin (human, UniProt P02768 25-609); assay: Bio-Layer Interferometry (BLI), synthetic peptide at 16, 12, 8, 2, 1 nM, 30 C
T2 construct: also called HSA
Procedure: as §1

[4] = target: T2, human serum albumin; assay: Bio-Layer Interferometry (BLI), synthetic peptide at 16, 12, 8, 4 nM, 30 C
Procedure: as §1

[5] = target: T2, human serum albumin; assay: pull-down of the An21-type display complex on HSA-immobilized SA beads, recovered cDNA quantified by real-time PCR
Procedure: Derivative peptides having reverse and shuffled sequences of the selected peptides (p1 and p2) and the original peptide were prepared as the An21-type complexes. The obtained complexes were subjected to pull-down using the HSA-immobilized SA beads and the SA beads free of HSA, and the recovered cDNA was quantified, which provided the result that p1 and p2 actually bond with HSA (FIG. 5e). Furthermore, since the bonding activity to HSA is lost when the amino acid sequence of the obtained cyclic peptide is reconfigured (reversed or shuffled), it could be seen that the bond of peptide to HSA is sequence-dependent (FIG. 5e).

Which “bond to HSA (BLI binding curve)” value [1] does the source give for “XSQWDPWAIFWC ([ClAB‑L‑Phe]SQWDPWAIFWC; thioether (positions not given here); not fully specified (bridges)) [p2, X is ClAB-L-Phe, cyclized by thioether bond with Cys]” here?
The value was “bond to HSA”.

What about the “bond with HSA (recovered cDNA after pull-down)” value [2] of the same molecule?
Its value is “actually bond with HSA”.

Which “bond to HSA (BLI binding curve)” value [1] does the source give for “XTYNERLFWC ([ClAB‑L‑Phe]TYNERLFWC; thioether (positions not given here); not fully specified (bridges)) [p1, X is ClAB-L-Phe, cyclized by thioether bond with Cys]” here?
Its value is “bond to HSA”.

What about the “bond with HSA (recovered cDNA after pull-down)” value [2] of the same molecule?
Its value is “actually bond with HSA”.

B1: p1: XTYNERLFWC (X is ClAB-L-Phe), chemically synthesized cyclic peptide (peptide)
peptide: [ClAB‑L‑Phe]TYNERLFWC
modifications: thioether (positions not given here); not fully specified (bridges)
notes: Made by Fmoc solid phase synthesis for the BLI assay; also called compound p1
Does B1 bind [3]?
Result: binds

B2: p2: XSQWDPWAIFWC (X is ClAB-L-Phe), chemically synthesized cyclic peptide (peptide)
peptide: [ClAB‑L‑Phe]SQWDPWAIFWC
modifications: thioether (positions not given here); not fully specified (bridges)
notes: Made by Fmoc solid phase synthesis for the BLI assay; also called compound p2
Does B2 bind [4]?
Result: binds

B3: Reversed p1, displayed as An21-type complex (peptide)
peptide: [ClAB‑L‑Phe]WFLRENYTCGGGGGS-{puromycin-An21 Pu‑linker}
modifications: thioether (positions not given here); not fully specified (bridges); reading uncertain; also: Pu-linker annealed to its mRNA/cDNA (display complex)
notes: also called No38rev
Does B3 bind [5]?
Result: no binding

B4: Shuffled p1, displayed as An21-type complex (peptide)
peptide: [ClAB‑L‑Phe]RFETLNWYCGGGGGS-{puromycin-An21 Pu‑linker}
modifications: thioether (positions not given here); not fully specified (bridges); reading uncertain; also: C-terminal Pu-linker annealed to its mRNA/cDNA (display complex)
notes: also called No38ran
Does B4 bind [5]?
Result: no binding

B5: Reversed p2, displayed as An21-type complex (peptide)
peptide: [ClAB‑L‑Phe]WFIAWPDWQSCGGGGGS
modifications: thioether (positions not given here); not fully specified (C-terminus, bridges); also: Pu-linker annealed to its mRNA/cDNA (display complex)
notes: also called No41rev
Does B5 bind [5]?
Result: no binding

B6: Shuffled p2, displayed as An21-type complex (peptide)
peptide: [ClAB‑L‑Phe]DQSPWWWIAFCGGGGGS
modifications: thioether (positions not given here); not fully specified (C-terminus, bridges); also: C-terminal Pu-linker annealed to its mRNA/cDNA (display complex)
notes: also called No41ran
Does B6 bind [5]?
Result: no binding
